What was measured:
[1] = biological target: PcrG (Pseudomonas aeruginosa strain 2192); test: SEC; HiLoad 16/60 Superdex 200 pg; 25 mM Tris–HCl pH 7.4, 150 mM NaCl; proteins 2–5 mg/ml; 1 ml/min; calibrated with markers
[2] = biological target: PcrG (Pseudomonas aeruginosa strain 2192); test: SPR; BIACORE 3000, NTA sensor chip; […]; 10 mM hepes pH 7.4, 150 mM NaCl, 50 μM EDTA; 25°C; 5 μl/min; Langmuir binding model
[3] = biological target: ∆PcrG_((13–72)) (Pseudomonas aeruginosa strain 2192); test: as above
[4] = biological target: PcrG (Pseudomonas aeruginosa strain 2192); test: dynamic light scattering; Malvern Zetasizer nano ZS; proteins 2–5 mg/ml, filtered 0.22 micron; ΔPcrV(128–294) alone and with equimolar PcrG
[5] = biological target: PcrG (Pseudomonas aeruginosa strain 2192); test: cross-linking; EGS-sulfonate 0.5 mM, 1 mM and 2 mM, room temperature, 30 minutes; 10 mM hepes pH 7.4, 150 mM NaCl; 12% SDS PAGE
[6] = biological target: ∆PcrG_((13–72)) (Pseudomonas aeruginosa strain 2192); test: native MS; called native mass spectrometry; protein diluted to 0.5-1.0 mg/ml in HPLC water, spotted on a MALDI target plate with CHCA matrix; Applied Biosystem 4700 Proteomics Analyser

Q: How did the stoichiometry N [1] turn out when PcrG (natural protein) was run?
A: The stoichiometry N was 2.

Q: With “ΔPcrV_((1–250)) (from UniProt G3XD49 1-250) (domain or fragment)” as the substance, how does the Kd [2] read?
A: The Kd was 179 nM.

Q: For “ΔPcrV_((159–294)) (from UniProt G3XD49 159-294) (domain or fragment)”, which Kd [2] is on record?
A: Its Kd is 36.6 nM.

Q: How did the Kd [2] turn out when “ΔPcrV_((1–158)) (from UniProt G3XD49 1-158) (domain or fragment)” was run?
A: The Kd was 203 nM.

Q: Which Ka [3] does the source give for “ΔPcrV_((128–294)) (from UniProt G3XD49 128-294) (domain or fragment)” here?
A: Its Ka is 1.61e+06 M⁻¹.

Q: What about the Kd [3] of the same substance?
A: Its Kd is 621 nM.

Q: What about the koff [3] of the same substance?
A: Its koff is 1.69e-05 s⁻¹.

Q: What about the kon [3] of the same substance?
A: The kon was 27.2 M⁻¹ s⁻¹.

Q: And the Ka [2]?
A: The Ka was 4.11e+07 M⁻¹.

Q: And the Kd [2]?
A: The Kd was 24.3 nM.

Q: What about the koff [2] of the same substance?
A: The koff was 1.24e-05 s⁻¹.

Q: And the kon [2]?
A: The kon was 511 M⁻¹ s⁻¹.

Q: And the stoichiometry N [4]?
A: Its stoichiometry N is 1.

Q: What about the stoichiometry N [5] of the same substance?
A: Its stoichiometry N is 1.

Q: How did the Ka [3] turn out when “PcrV (from UniProt G3XD49 1-294) (natural protein)” was run?
A: The Ka was 1.75e+06 M⁻¹.

Q: What about the Kd [3] of the same substance?
A: The Kd was 570 nM.

Q: And the koff [3]?
A: Its koff is 0.00978 s⁻¹.

Q: What about the kon [3] of the same substance?
A: Its kon is 17100 M⁻¹ s⁻¹.

Q: ∆PcrG_((13–72)) (domain or fragment) was tested. Which stoichiometry N [6] did it give?
A: The stoichiometry N was 2.

Q: How did the Kd [2] turn out when “ΔPcrV_((128–250)) (from UniProt G3XD49 128-250) (domain or fragment)” was run?
A: Its Kd is 247 nM.

Source: publication PMC3904411
